{"source": "patent US20240132593A1", "key": {"[1]": {"target": "2.1C-VISTA-ECD-Fc (human)", "sequence (chain, as listed by the source)": "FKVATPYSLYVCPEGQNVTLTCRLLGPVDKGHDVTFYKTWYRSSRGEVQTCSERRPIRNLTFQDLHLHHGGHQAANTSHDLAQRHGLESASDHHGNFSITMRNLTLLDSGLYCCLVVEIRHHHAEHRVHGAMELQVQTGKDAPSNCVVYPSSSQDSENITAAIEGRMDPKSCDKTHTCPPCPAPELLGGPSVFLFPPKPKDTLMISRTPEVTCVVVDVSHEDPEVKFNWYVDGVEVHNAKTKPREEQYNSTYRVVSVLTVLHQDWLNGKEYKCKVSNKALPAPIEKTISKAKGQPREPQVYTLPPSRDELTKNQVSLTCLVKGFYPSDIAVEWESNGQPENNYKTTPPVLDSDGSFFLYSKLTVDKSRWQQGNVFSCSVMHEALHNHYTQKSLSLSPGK", "assay": "ELISA on plate-bound VISTA-ECD-Fc"}, "[2]": {"target": "4.1-VISTA-ECD-Fc (human)", "sequence (chain, as listed by the source)": "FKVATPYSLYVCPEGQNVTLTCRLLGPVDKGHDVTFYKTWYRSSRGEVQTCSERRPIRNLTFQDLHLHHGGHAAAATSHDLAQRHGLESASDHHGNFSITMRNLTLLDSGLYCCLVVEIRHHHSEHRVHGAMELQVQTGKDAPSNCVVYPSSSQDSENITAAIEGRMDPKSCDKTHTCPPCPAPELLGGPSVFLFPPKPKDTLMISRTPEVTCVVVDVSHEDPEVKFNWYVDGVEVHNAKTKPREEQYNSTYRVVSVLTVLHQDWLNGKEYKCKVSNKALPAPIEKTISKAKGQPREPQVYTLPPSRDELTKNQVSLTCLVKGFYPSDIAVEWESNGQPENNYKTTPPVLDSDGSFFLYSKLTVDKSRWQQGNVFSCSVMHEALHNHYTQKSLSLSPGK", "assay": "ELISA on plate-bound VISTA-ECD-Fc"}, "[3]": {"target": "5.1-VISTA-ECD-Fc (human)", "sequence (chain, as listed by the source)": "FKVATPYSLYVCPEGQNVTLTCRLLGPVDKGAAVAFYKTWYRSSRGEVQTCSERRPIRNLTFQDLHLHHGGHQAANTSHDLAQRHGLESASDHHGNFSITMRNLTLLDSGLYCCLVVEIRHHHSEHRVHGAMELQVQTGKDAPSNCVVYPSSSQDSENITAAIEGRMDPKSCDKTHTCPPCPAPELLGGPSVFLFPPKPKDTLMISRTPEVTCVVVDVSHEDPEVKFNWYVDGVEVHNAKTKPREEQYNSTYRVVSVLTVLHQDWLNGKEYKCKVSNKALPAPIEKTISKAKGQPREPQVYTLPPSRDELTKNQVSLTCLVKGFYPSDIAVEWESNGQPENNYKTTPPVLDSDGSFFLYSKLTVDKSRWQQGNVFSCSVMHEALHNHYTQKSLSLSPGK", "assay": "ELISA on plate-bound VISTA-ECD-Fc"}, "[4]": {"target": "RFQ-VISTA-ECD-Fc (human)", "sequence (chain, as listed by the source)": "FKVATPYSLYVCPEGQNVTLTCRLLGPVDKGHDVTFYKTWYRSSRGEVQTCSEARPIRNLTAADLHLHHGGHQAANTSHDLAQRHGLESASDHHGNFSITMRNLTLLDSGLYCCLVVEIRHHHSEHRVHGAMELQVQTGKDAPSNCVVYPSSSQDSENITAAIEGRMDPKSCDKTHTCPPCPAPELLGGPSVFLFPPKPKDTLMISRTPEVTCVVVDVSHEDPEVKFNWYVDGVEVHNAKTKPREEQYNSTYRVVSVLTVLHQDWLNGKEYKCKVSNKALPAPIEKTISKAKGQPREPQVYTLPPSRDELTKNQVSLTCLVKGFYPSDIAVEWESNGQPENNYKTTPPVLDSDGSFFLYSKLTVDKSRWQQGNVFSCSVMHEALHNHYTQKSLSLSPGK", "assay": "ELISA, 10 ug/mL antibody on plate-bound mutant VISTA-Fc"}}}
{"substance": "IgG1 (antibody)", "values": [{"measurement": "EC50", "setting": "[1]", "result": 100, "unit": "µg/mL"}, {"measurement": "EC50", "setting": "[2]", "result": 100, "unit": "µg/mL"}, {"measurement": "EC50", "setting": "[3]", "result": 100, "unit": "µg/mL"}, {"measurement": "ELISA Abs 450 nm", "setting": "[4]", "result": 0.019, "unit": "Abs 450 nm"}]}
